Results published in paper doi:10.1101/302828 (bioRxiv, 2018).

Biological target: the molecule itself
Experiment: SEC

B1: recombinant murine chromogranin B (CHGB) (natural protein, mouse, UniProt P16014 21-677, looked up)
chain: APVDNRDHNEEMVTRCIIEVLSNALSKSSVPTITPECRQVLKKSGKEVKGEEKGENQNSKFEVRLLRDPADASGTRWASSREDAGAPVEDSQGQTKVGNEKWTEGGGHSREGVDDQESLRPSNQQASKEAKIYHSEERVGKEREKEEGKIYPMGEHREDAGEEKKHIEDSGEKPNTFSNKRSEASAKKKDESVARADAHSMELEEKTHSREQSSQESGEETRRQEKPQELTDQDQSQEESQEGEEGEEGEEGEEGEEDSASEVTKRRPRHHHGRSGSNKSSYEGHPLSEERRPSPKESKEADVATVRLGEKRSHHLAHYRASEEEPEYGEESRSYRGLQYRGRGSEEDRAPRPRSEESQEREYKRNHPDSELESTANRHGEETEEERSYEGANGRQHRGRGREPGAHSALDTREEKRLLDEGHYPVRESPIDTAKRYPQSKWQEQEKNYLNYGEEGDQGRWWQQEEQLGPEESREEVRFPDRQYEPYPITEKRKRLGALFNPYFDPLQWKNSDFEKRGNPDDSFLEDEGEDRNGVTLTEKNSFPEYNYDWWERRPFSEDVNWGYEKRSFARAPQLDLKRQYDGVAELDQLLHYRKKADEFPDFYDSEEQMGPHQEANDEKARADQRVLTAEEKKELENLAAMDLELQKIAEKFSQRG
stoichiometry N: 2
